Results: US20150337309A1

How the values were obtained:
[1] = biological target: integrin αvβ3 on breast cancer cells (MCF7, 4T1, MDA-MB-231); assay: cell-based or functional assay
[2] = biological target: integrin αvβ5 on breast cancer cells (MCF7, 4T1, MDA-MB-231); assay: cell-based or functional assay

With “periostin (recombinant protein purchased from R&D system, as coated on wells or added to cells) (ligand)” the cell adhesion to periostin-coated wells after treatment with anti-αvβ3 antibody [1] was 50 % of control and the cell adhesion to periostin-coated wells after treatment with anti-αvβ5 antibody [2] was 50 % of control.
